The values that follow come from article PMC9122904, “Insights into the client protein release mechanism of the ATP-independent chaperone Spy” (Nature Communications, 2022).

Common to all, as to assay: BLI; Octet RED96; client biotinylated and loaded on streptavidin sensors; Spy or Spy variant in solution at 0.25, 0.5, 1, 1.5 and 2 μM; 40 mM HEPES, 150 mM NaCl, pH 7.5; Kd calculated as koff/kon
Settings in all cases: both partners purified

Experiment [1] has as its target T1, Spy D26K K121D R122D (UniProt P77754 24-161, D26K | K121D | R122D).
T1 construct: source: E. coli BL21 (DE3), purified (Ni-NTA, cation exchange, SEC); not shown: His6, N-terminal, cleaved; SUMO, N-terminal, cleaved
T1 sequence (looked up): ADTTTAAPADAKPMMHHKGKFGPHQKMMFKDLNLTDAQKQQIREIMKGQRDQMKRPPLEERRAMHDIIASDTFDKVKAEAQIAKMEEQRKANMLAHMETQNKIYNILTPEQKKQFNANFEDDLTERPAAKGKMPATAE
The gist of the method: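 Biolayer interferometry used an Octet RED96: client proteins biotinylated with EZ-link NHS-biotin (1:1 molar ratio) were loaded on streptavidin sensors, dipped into 40 mM HEPES, 150 mM NaCl, pH 7.5 containing Spy protein at 0.25, 0.5, 1, 1.5 and 2 μM, then moved to Spy-free buffer. Wavelength-shift association and dissociation curves were fitted in SigmaPlot 12.0, giving observed association rate and koff. kon came from observed rate versus Spy concentration; Kd was koff/kon.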

In experiment [2] the target is T2, Spy_(29-124) K75D (UniProt P77754 52-147, K75D).
T2 construct: source: E. coli BL21 (DE3), purified (Ni-NTA, cation exchange, SEC); not shown: His6, N-terminal, cleaved; SUMO, N-terminal, cleaved
T2 sequence (looked up): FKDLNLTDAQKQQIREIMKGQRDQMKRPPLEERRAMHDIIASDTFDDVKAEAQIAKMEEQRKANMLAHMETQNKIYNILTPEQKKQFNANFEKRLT

Experiment [3] has as its target T3, Spy_(29-124) R61D R62D (UniProt P77754 52-147, R61D | R62D).
T3 construct: source: E. coli BL21 (DE3), purified (Ni-NTA, cation exchange, SEC); not shown: His6, N-terminal, cleaved; SUMO, N-terminal, cleaved
T3 sequence (looked up): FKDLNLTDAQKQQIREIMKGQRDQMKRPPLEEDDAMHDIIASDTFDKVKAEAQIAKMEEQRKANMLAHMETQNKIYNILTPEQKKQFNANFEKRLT

The target of experiment [4] is T4, Spy_(29-124) K121D R122D (UniProt P77754 52-147, K121D | R122D).
T4 construct: source: E. coli BL21 (DE3), purified (Ni-NTA, cation exchange, SEC); not shown: His6, N-terminal, cleaved; SUMO, N-terminal, cleaved
T4 sequence (looked up): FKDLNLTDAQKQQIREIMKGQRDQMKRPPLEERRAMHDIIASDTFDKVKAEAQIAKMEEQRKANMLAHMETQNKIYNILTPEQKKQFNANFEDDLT

In experiment [5] the target is T5, Spy_(29-124) H96D (UniProt P77754 52-147, H96D).
T5 construct: source: E. coli BL21 (DE3), purified (Ni-NTA, cation exchange, SEC); not shown: His6, N-terminal, cleaved; SUMO, N-terminal, cleaved
T5 sequence (looked up): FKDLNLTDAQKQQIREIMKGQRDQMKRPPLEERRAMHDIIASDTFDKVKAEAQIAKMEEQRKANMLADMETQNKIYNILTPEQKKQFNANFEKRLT

Experiment [6] concerns the target T6, Spy_(29-124) K54D R55D (UniProt P77754 52-147, K54D | R55D).
T6 construct: source: E. coli BL21 (DE3), purified (Ni-NTA, cation exchange, SEC); not shown: His6, N-terminal, cleaved; SUMO, N-terminal, cleaved
T6 sequence (looked up): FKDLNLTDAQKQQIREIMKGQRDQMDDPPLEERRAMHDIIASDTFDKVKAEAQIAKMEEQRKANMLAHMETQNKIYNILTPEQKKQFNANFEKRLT

Experiment [7] has as its target T7, Spy_(29-124) R43D (UniProt P77754 52-147, R43D).
T7 construct: source: E. coli BL21 (DE3), purified (Ni-NTA, cation exchange, SEC); not shown: His6, N-terminal, cleaved; SUMO, N-terminal, cleaved
T7 sequence (looked up): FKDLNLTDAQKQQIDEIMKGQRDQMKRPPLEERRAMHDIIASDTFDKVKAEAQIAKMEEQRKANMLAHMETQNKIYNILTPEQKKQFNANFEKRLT

In experiment [8] the target is T8, Spy_(29-124) R50D (UniProt P77754 52-147, R50D).
T8 construct: source: E. coli BL21 (DE3), purified (Ni-NTA, cation exchange, SEC); not shown: His6, N-terminal, cleaved; SUMO, N-terminal, cleaved
T8 sequence (looked up): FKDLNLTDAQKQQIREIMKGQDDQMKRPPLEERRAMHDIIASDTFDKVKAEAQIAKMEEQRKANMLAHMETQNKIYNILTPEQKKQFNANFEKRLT

Experiment [9] deals with T9, Spy_(29-124) R89D (UniProt P77754 52-147, R89D).
T9 construct: source: E. coli BL21 (DE3), purified (Ni-NTA, cation exchange, SEC); not shown: His6, N-terminal, cleaved; SUMO, N-terminal, cleaved
T9 sequence (looked up): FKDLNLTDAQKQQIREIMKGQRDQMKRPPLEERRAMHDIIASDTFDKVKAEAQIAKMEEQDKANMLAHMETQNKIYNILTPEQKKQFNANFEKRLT

B1: Im7 H40W L53A I54A (natural protein)
chain: MELKNSISDYTEAEFVQLLKEIEKENVAATDDVLDVLLEWFVKITEHPDGTDAAYYPSDNRDDSPEGIVKEIKEWRAANGKPGFKQG
modifications: biotin (EZ-link NHS-biotin, 1:1 molar ratio of biotin to protein)
notes: Im7 (colicin E7 immunity protein) with H40W L53A I54A; Spy was made with an N-terminal His6-SUMO tag that was cleaved; also called Im7AAW; partially folded client; source: purified by a similar procedure to Spy
For the molecule B1, in experiment [1], the koff was 0.202 s⁻¹. For the same molecule, the Kd in experiment [2] was 456 nM; in experiment [3], 3.54 µM; in experiment [4] it was 1850 nM; in experiment [5], 1260 nM; in experiment [6], 1900 nM; in experiment [7], 3.07 µM. For the same molecule, the results for the Kd in experiment [8] and in experiment [9] were 2680 nM and 2610 nM, respectively.
